Read-outs that look alike come from different tables or passages of the source.
Columns and labels:
FXN fusion protein = target: T1, FXN fusion protein (Homo sapiens, UniProt Q16595); experiment: HQ assay in the presence of NADH or NADPH (FIG. 3, Panel B); type: biochemical; conditions: added to the assay with Fe^3+
T1 sequence (Q16595 with tags, fused parts or gaps): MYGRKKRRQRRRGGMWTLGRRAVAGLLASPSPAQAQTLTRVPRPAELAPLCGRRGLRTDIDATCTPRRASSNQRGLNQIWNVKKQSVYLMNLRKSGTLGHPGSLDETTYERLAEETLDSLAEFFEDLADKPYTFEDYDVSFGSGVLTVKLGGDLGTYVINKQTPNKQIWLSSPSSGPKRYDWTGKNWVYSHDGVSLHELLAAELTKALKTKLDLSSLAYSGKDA
Method: Redox activity of the FXN fusion protein was also measured in the presence of NADPH and NADH.

[1] = Temperature stability study: HQ assay after one month storage; type: biochemical
Method: The goal of this experiment was to evaluate thermal stability of an exemplary FXN fusion protein by evaluating the activity of the FXN fusion protein after short-term storage (one month) at different temperatures.
(SPL1), 2-4° C. (SPL2) and 25° C. (SPL3), as compared to the DS control. […] (SPL1), 2-4° C. (SPL2) and 25° C. (SPL3), as compared to the DS control.

[2] = Chemical stability study: HQ assay after chemical stress; type: biochemical
Method: The goal of this experiment was to evaluate stability to chemical stress of an exemplary FXN fusion protein by evaluating the activity of the exemplary FXN fusion protein after its exposure to chemical stressors that may trigger protein denaturation and/or degradation of the FXN fusion protein.
Briefly, study control was stored at 2-8° C. over the course of the study. Each treatment was conducted as follows:
i. Acid treatment: 1N HCl was added to the solution containing FXN fusion protein until a pH≤4 was reached. The sample was kept at 37° C. for 2 days, and then the buffer exchanged for the buffer of the DS formulation. The sample was stored at 2-8° for the remainder of the study.
ii. Alkaline treatment: 1M Tris base was added to the solution containing FXN fusion protein until a pH≥10 was reached. The sample was kept at 37° C. for 2 days, and then the buffer was exchanged for the buffer of the DS formulation. The sample was stored at 2-8° C.
iii. Acid and Base control: solution containing FXN fusion protein was stored at 37° C. for 2 days, and then stored at 2-8° C.
iv. Oxidation stress treatment: exemplary FXN fusion protein was incubated in the presence of 0.05% hydrogen peroxide at 37° C. for 2 hours and then stored at 2-8° C.
v. Oxidation control: exemplary FXN fusion protein was incubated at 37° C. for 2 hours and then stored at 2-8° C.
vi. Heat stress treatment: exemplary FXN fusion protein was incubated at 50° for 2 hours then stored at 2-8° C.
All samples were analyzed for appearance, pH, protein quantification (by A280), size-exclusion ultra-performance liquid chromatography (SE-UPLC), reversed-phase high-performance liquid chromatography (RP-HPLC), ion-exchange high-performance liquid chromatography (IE-HPLC), reduced capillary electrophoresis sodium dodecyl sulfate (rCE-SDS), non-reduced capillary electrophoresis sodium dodecyl sulfate (nrCE-SDS), and free thiol (data not shown). The concentration of FXN fusion protein was determined by Western blot, and redox activity was determined using the HQ assay as described above.

[3] = 10 μM FXN fusion protein, 5 μM HQ, 5 μM Fe(III) sulfate
Method: The goal of this experiment was to evaluate pH dependence of HQ-dependent superoxide generating activity of an exemplary FXN fusion protein. FXN fusion protein of SEQ ID NO: 12 was used in this experiment. Specifically, kinetics of superoxide generation by an exemplary FXN fusion protein was evaluated at pHs ranging from 7.0 to 9.0. Each reaction mixture contained 5 μM HQ, 5 μM Fe(III) sulfate, 0.05 μM H2DCF and 10 μM exemplary FXN fusion protein in 50 mM Tris-HCL at pH of 7.0, 7.4, 7.8, 8.0, 8.2, 8.5 and 9.0.
The assay plate was placed in the plate reader and the kinetic read began immediately after all assay ingredients were mixed together. The plate reader settings were as follows: 2-hour kinetic scan with a Fluorescent read (excitation 485/20, emission 528/25, and a gain of 50) every 5-minutes with a 10 second shake between reads. Maximum initial velocity (Vi) was determined for each well by measuring fastest change in arbitrary fluorescence unit (AFU) over 5 data points.

[4] = Excerpt: The goal of the first part of the experiment was to validate performance of the HQ assay at the conditions used for the HTS. To this end, the HQ assay was characterized by measuring statistical parameters, such as signal-to-background (S/B) ratio, Z′ factor (which is a measure of the statistical robustness of the assay readout), and intra- and inter-plate variability. To this end, two 96-well plates were each split into 9 sections: 4 sections in each plate contained an exemplary FXN fusion protein at the concentration of 10 μM (high control); 4 sections contained the exemplary FXN fusion protein at the concentration of 0.5 μM (low control); and 1 section contained only the assay mix without the FXN fusion protein (blank control).
H2DCF was activated by incubating in the dark 1 mL of 1 mM H2DCF-DA in 20 mL of 0.01 M NaOH for 30 minutes while stirring. Subsequently, 75 mL of 33 mM NaH2PO4 was added to the activation mixture to yield a final H2DCF concentration of 10 μM. This solution was stored at 4° C. and protected from light until use. The assay mix in each well contained 50 mM Tris-HCL (pH 8.0), 50 μM HQ, 1 μM MnCl2, 0.5 μM activated H2DCF and the exemplary FXN fusion protein at the concentration of 10 μM (high control), 0.5 μM (low control) and 0 μM (blank control). After the assay mix was added to the plate, the plate was immediately placed in the plate reader, and the kinetic read was initiated. The plate reader settings were as follows: 45-minute kinetic scan with a Fluorescent read (excitation 482/20, emission 530/25, and a gain of 50) every minute with a 3 second shake in between reads. Maximum initial velocity (Vi) was determined for each well by measuring the fastest change in arbitrary fluorescence unit (AFU) over 5 data points. The statistical parameters, such as signal-to-background (S/B) ratio, Z′ factor, and intra- and inter-plate variability were calculated to characterize the assay performance.

FXN-deficient cell lines = experiment: Genomic footprint of FXN-deficient cell lines before and after FXN fusion protein treatment; type: cell-based; conditions: data not shown
Excerpt: (§1) FXN fusion protein having the amino acid sequence of SEQ ID NO: 12 comprises a cell penetrating peptide, HIV-TAT (SEQ ID NO: 4), and a full length hFXN (SEQ ID NO: 1), linked through a linker at the N-terminus of the hFXN.

FDRA mouse model = experiment: Treatment of an FDRA mouse model; type: in vivo; conditions: data not shown
Excerpt: as §1

[5] = in the presence and absence of metal ions; FIG. 1
Method: Protocol for Hydroquinone (HQ) Reduction Assay
a. 1 ml of 1 mM H2DCFDA (in DMSO) is added to 20 mL of 0.01 M NaOH working solution to generate the activating solution. The solution is stirred for 30 minutes at room temperature in the dark.
b. 79 mL of 33 mM NaH2PO4 solution is added to the activating solution to yield a final concentration of 10 μM H2DCF.
b. Excitation and emission reading of the plate is performed every minute, or as required, with a spectrometer set for the following parameters: excitation at 485/20, emission at 528/20, optics from the top, a read height of 1 mm, and a gain of 50.
To each well add: • i. 10 μL of 20× Hydroquinone (to 20 μM final concentration) • ii. 10 μL of 20×Mn^2 (5 μM final concentration)
b. Tris Buffer Addition • i. FXN protein sample well: 168 μL • ii.
b. 10 μL of H2DCF (10 μM working solution) is added to every well (except the DCF standard curve) to arrive at a final concentration of 0.5 μM H2DCF.
b. […] Velocity calculated on 5 points; • 3. Relative fluorescence units (RFU) per minute. • ii. Vi generated from the fluorescence scanner is plotted on a scatter plot • 1. […]
c. […] The line should go through 0,0, and the slope recorded. […]
Generation of ROS, i.e., superoxide, was detected using an ROS detector compound, such as for example, 2′,7′-dichlorodihydrofluorescein (H2DCF), and was followed kinetically, as shown in Panel A of FIG. 1. […]

[6] = in the absence of Fe^3+; 10 μM FXN fusion protein, 10 μM HQ, 5 μM H2DCF
Method: In another experiment, the effect of the presence of Fe^3+ ions on the activity of an exemplary FXN fusion protein was studied. In this experiment, the kinetics of ROS generated over time was measured in assay mixtures containing 10 μM exemplary FXN fusion protein, 10 μM HQ, and 5 μM H2DCF. One assay mixture also contained 1 mM deferoxamine, an iron chelator.

[7] = Drug substance (DS) control (stored at −80° C.)
[8] = Acid and alkaline control: 37° C. for 2 days
[9] = Acid stress: pH ≤4, at 37° C. for 2 days
[10] = Alkaline stress: pH ≥10, at 37° C. for 2 days
[11] = Heat stress: 50° C. for 2 hours
[12] = Oxidation control: 37° C. for 2 hours
[13] = Oxidation: 0.05% peroxide at 37° C. for 2 hours
[14] = Study control: 2-8° C. for 2 hours

Molecule: NC(=O)C1=CN([C@@H]2O[C@H](COP(=O)(O)OP(=O)(O)OC[C@H]3O[C@@H](n4cnc5c(N)ncnc54)[C@H](OP(=O)(O)O)[C@@H]3O)[C@@H](O)[C@H]2O)C=CC1 [NADPH]
- effect on ROS production / redox activity of the FXN fusion protein (FXN fusion protein): significantly diminished ROS production

Molecule: NC(=O)C1=CN([C@@H]2O[C@H](COP(=O)(O)OP(=O)(O)OC[C@H]3O[C@@H](n4cnc5c(N)ncnc54)[C@H](O)[C@@H]3O)[C@@H](O)[C@H]2O)C=CC1 [NADH]
- effect on ROS production / redox activity of the FXN fusion protein (FXN fusion protein): did not affect the redox activity

B1: FXN fusion protein: cell penetrating peptide HIV-TAT linked through a linker to the N-terminus of full length hFXN; amino acid sequence of SEQ ID NO: 12 (protein)
chain: MYGRKKRRQRRRGGMWTLGRRAVAGLLASPSPAQAQTLTRVPRPAELAPLCGRRGLRTDIDATCTPRRASSNQRGLNQIWNVKKQSVYLMNLRKSGTLGHPGSLDETTYERLAEETLDSLAEFFEDLADKPYTFEDYDVSFGSGVLTVKLGGDLGTYVINKQTPNKQIWLSSPSSGPKRYDWTGKNWVYSHDGVSLHELLAAELTKALKTKLDLSSLAYSGKDA
- Result (% activity) [1, 7]: 100.2%
- Vi [1, 7]: (1126 Vi units)
- Result (% activity) ([1]; SPL1: −60° C. for 1 month): 100%
- Vi ([1]; SPL1: −60° C. for 1 month): (1123 Vi units)
- Result (% activity) ([1]; SPL2: 2-4° C. for 1 month): 66.4%
- Vi ([1]; SPL2: 2-4° C. for 1 month): (746 Vi units)
- Result (% activity) ([1]; SPL3: 25° C. for 1 month): 23.4%
- Vi ([1]; SPL3: 25° C. for 1 month): (263 Vi units)
- activity in the HQ Assay after storage ([1]; storage in conditions other than −60° C. for one month): decreased activity
- Result (% activity) [2, 8]: 79.7%
- Vi [2, 8]: (1,730 Vi units)
- Result (% activity) [2, 9]: 23.7%
- Vi [2, 9]: (689 Vi units)
- Result (% activity) [2, 10]: 0.02%
- Vi [2, 10]: (0.7 Vi units)
- Result (% activity) [2, 11]: 96.9%
- Vi [2, 11]: (2,820 Vi units)
- Result (% activity) [2, 12]: 59.5%
- Vi [2, 12]: (1,730 Vi units)
- Result (% activity) [2, 13]: 2.2%
- Vi [2, 13]: (63 Vi units)
- Result (% activity) [2, 14]: 100%
- Vi [2, 14]: (2,908 Vi units)
- stability of HQ activity to acid stress ([2]; acid stress): partly susceptible
- stability of HQ activity to alkaline stress ([2]; alkaline stress): susceptible
- stability of HQ activity to heat stress ([2]; heat stress applied for 2 hours): to a large extent, was resistant to heat stress
- stability of HQ activity to oxidation stress ([2]; oxidation stress): susceptible
- pH at which activity peaks ([3]; pH 7.0 to 9.0): about 8.5
- superoxide-generating activity (Vi) ([3]; pH of 7.4 or lower): almost no activity
- Mean Vi ([4]; Plate 1, High control (10 µM FXN fusion protein)): 5390.0
- Mean Vi ([4]; Plate 1, Low control (0.5 μM FXN fusion protein)): 471.0
- Mean Vi ([4]; Plate 2, High control (10 μM FXN fusion protein)): 4995.1
- Mean Vi ([4]; Plate 2, Low control (0.5 μM FXN fusion protein)): 635.5
- Mean Vi ([4]; Plates 1 and 2 combined, High control (10 μM FXN fusion protein)): 5192.5
- Mean Vi ([4]; Plates 1 and 2 combined, Low control (0.5 μM FXN fusion protein)): 553.2
- expression of a set of genes before and after treatment (FXN-deficient cell lines): significant difference in the expression of a set of genes
- cardiomyopathic phenotype, for example cardiac contractility (FDRA mouse model): measurable improvement in the cardiomyopathic phenotype
- enzymatic activity, as measured by ROS generation over time [5]: possesses enzymatic activity
- lag time to ROS generation [6]: approximately 2 hours
